Data reported in publication PMC7174398 (Nature Communications, 2020).

Experiments:
[1] = target: the molecule itself; experiment: SEC-MALS; mHsp60 (WT or variant) with mHsp10, pre-incubated with 1 mM ATP, 1 mM BeCl2 and 10 mM NaF for 5 min; Superose-6, ~25 C
[2] = target: the molecule itself; experiment: SEC-MALS; mHsp60 with mHsp10, pre-incubated with 1 mM ATP for 5 min; Superose-6, ~25 C

B1: wild-type human mitochondrial Hsp60 (mHsp60) (natural protein)
chain: GSAKDVKFGADARALMLQGVDLLADAVAVTMGPKGRTVIIEQSWGSPKVTKDGVTVAKSIDLKDKYKNIGAKLVQDVANNTNEEAGDGTTTATVLARSIAKEGFEKISKGANPVEIRRGVMLAVDAVIAELKKQSKPVTTPEEIAQVATISANGDKEIGNIISDAMKKVGRKGVITVKDGKTLNDELEIIEGMKFDRGYISPYFINTSKGQKCEFQDAYVLLSEKKISSIQSIVPALEIANAHRKPLVIIAEDVDGEALSTLVLNRLKVGLQVVAVKAPGFGDNRKNQLKDMAIATGGAVFGEEGLTLNLEDVQPHDLGKVGEVIVTKDDAMLLKGKGDKAQIEKRIQEIIEQLDVTTSEYEKEKLNERLAKLSDGVAVLKVGGTSDVEVNEKKDRVTDALNATRAAVEEGIVLGGGCALLRCIPALDSLTPANEDQKIGIEIIKRTLKIPAMTIAKNAGVEGSLIVEKIMQSSSEVGYDAMAGDFVNMVEKGIIDPTKVVRTALLDAAGVASLLTTAEVVVTEIPKEEKDPGMGAMGGMGGGMGGGMF
notes: residues left at the N-terminus after TEV cleavage and removal of the HisTag; human mitochondrial Hsp60 (mt-cpn60); Oligomeric state depends on nucleotide and concentration: monomers, heptameric single rings, tetradecameric double rings; also called WT mHsp60; mt-cpn60; source: E. coli Rosetta, purified (nickel-agarose, TEV cleavage, anion exchange, oligomerised with ATP, Superdex 200); not …
- stoichiometry N [1]: 14
- stoichiometry N [2]: 7
